The record followed here is IntAct's records for PubMed 19379695.

B1: Segment polarity protein dishevelled homolog DVL-2 (Homo sapiens), O14641 (parent)
chain: MAGSSTGGGGVGETKVIYHLDEEETPYLVKIPVPAERITLGDFKSVLQRPAGAKYFFKSMDQDFGVVKEEISDDNARLPCFNGRVVSWLVSSDNPQPEMAPPVHEPRAELAPPAPPLPPLPPERTSGIGDSRPPSFHPNVSSSHENLEPETETESVVSLRRERPRRRDSSEHGAGGHRTGGPSRLERHLAGYESSSTLMTSELESTSLGDSDEEDTMSRFSSSTEQSSASRLLKRHRRRRKQRPPRLERTSSFSSVTDSTMSLNIITVTLNMEKYNFLGISIVGQSNERGDGGIYIGSIMKGGAVAADGRIEPGDMLLQVNDMNFENMSNDDAVRVLRDIVHKPGPIVLTVAKCWDPSPQAYFTLPRNEPIQPIDPAAWVSHSAALTGTFPAYPGSSSMSTITSGSSLPDGCEGRGLSVHTDMASVTKAMAAPESGLEVRDRMWLKITIPNAFLGSDVVDWLYHHVEGFPERREARKYASGLLKAGLIRHTVNKITFSEQCYYVFGDLSGGCESYLVNLSLNDNDGSSGASDQDTLAPLPGATPWPLLPTFSYQYPAPHPYSPQPPPYHELSSYTYGGGSASSQHSEGSRSSGSTRSDGGAGRTGRPEERAPESKSGSGSESEPSSRGGSLRRGGEASGTSDGGPPPSRGSTGGAPNLRAHPGLHPYGPPPGMALPYNPMMVVMMPPPPPPVPPAVQPPGAPPVRDLGSVPPELTASRQSFHMAMGNPSEFFVDVM
B2: E3 ubiquitin-protein ligase SMURF2 (Mus musculus), A2A5Z6 (parent)
chain: MSNPGGRRNGPVKLRLTVLCAKNLVKKDFFRLPDPFAKVVVDGSGQCHSTDTVKNTLDPKWNQHYDLYIGKSDSVTISVWNHKKIHKKQGAGFLGCVRLLSNAINRLKDTGYQRLDLCKLGPNDNDTVRGQIVVSLQSRDRIGTGGQVVDCSRLFDNDLPDGWEERRTASGRIQYLNHITRTTQWERPTRPASEYSSPGRPLSCFVDENTPITGTNGATCGHSSDPRLAERRVRSQRHRNYMSRTHLHTPPDLPEGYEQRTTQQGQVYFLHTQTGVSTWHDPRVPRDLSNINCEELGPLPPGWEIRNTATGRVYFVDHNNRTTQFTDPRLSANLHLVLNRQNQLKDQQQQQVVPLCPDDTECLTVPRYKRDLVQKLKILRQELSQQQPQAGHCRIEVSREEIFEESYRQVMKMRPKDLWKRLMIKFRGEEGLDYGGVAREWLYLLSHEMLNPYYGLFQYSRDDIYTLQINPDSAVNPEHLSYFHFVGRIMGMAVFHGHYIDGGFTLPFYKQLLGKSITLDDMELVDPDLHNSLVWILENDITGVLDHTFCVEHNAYGEIIQHELKPNGKSIPVTEENKKEYVRLYVNWRFLRGIEAQFLALQKGFNEVIPQHLLKTFDEKELELIICGLGKIDVSDWKVNTRLKHCTPDSNVVKWFWKAVEFFDEERRARLLQFVTGSSRVPLQGFKALQGAAGPRLFTIHQIDACTNNLPKAHTCFNRIDIPPYESYEKLYEKLLTAIEETCGFAVE
B3: E3 ubiquitin-protein ligase SMURF2 (Mus musculus), A2A5Z6 (parent)
chain: B2 chain
partner: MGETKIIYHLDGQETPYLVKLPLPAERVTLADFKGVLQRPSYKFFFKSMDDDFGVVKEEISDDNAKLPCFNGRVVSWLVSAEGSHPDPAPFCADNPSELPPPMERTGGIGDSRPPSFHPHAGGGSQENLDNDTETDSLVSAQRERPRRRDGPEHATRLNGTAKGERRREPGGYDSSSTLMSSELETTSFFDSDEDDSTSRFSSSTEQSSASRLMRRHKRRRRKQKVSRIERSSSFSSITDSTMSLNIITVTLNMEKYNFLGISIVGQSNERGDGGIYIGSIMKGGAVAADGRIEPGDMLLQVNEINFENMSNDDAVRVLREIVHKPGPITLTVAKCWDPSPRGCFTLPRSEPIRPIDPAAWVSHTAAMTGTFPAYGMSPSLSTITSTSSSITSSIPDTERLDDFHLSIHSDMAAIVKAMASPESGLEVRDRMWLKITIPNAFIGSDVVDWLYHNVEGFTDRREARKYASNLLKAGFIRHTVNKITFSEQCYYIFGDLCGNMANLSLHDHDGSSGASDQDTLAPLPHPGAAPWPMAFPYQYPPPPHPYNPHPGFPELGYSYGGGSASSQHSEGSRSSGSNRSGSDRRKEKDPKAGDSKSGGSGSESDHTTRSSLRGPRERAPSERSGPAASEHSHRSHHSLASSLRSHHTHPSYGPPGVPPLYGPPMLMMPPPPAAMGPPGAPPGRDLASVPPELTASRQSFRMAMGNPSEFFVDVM
B4: E3 ubiquitin-protein ligase SMURF2 (Mus musculus), A2A5Z6 (parent)
chain: B2 chain
partner: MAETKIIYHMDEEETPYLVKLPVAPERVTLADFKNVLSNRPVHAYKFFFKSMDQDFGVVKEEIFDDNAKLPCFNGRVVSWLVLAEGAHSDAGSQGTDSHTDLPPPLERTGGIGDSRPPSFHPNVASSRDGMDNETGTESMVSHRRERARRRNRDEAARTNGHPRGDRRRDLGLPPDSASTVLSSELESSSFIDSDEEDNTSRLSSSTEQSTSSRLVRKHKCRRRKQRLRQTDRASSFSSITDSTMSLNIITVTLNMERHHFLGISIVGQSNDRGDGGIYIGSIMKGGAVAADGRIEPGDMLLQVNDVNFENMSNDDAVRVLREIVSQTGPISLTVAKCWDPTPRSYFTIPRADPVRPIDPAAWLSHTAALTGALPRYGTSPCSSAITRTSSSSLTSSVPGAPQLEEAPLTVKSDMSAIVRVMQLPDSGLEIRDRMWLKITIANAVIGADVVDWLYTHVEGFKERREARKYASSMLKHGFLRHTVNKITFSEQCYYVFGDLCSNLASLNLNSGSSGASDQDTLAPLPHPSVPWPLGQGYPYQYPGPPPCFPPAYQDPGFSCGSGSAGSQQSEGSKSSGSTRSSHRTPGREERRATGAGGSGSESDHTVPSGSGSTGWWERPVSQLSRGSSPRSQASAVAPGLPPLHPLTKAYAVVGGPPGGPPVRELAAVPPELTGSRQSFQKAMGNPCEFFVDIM
B5: E3 ubiquitin-protein ligase SMURF2 (Mus musculus), A2A5Z6 (parent)
chain: B2 chain
partner: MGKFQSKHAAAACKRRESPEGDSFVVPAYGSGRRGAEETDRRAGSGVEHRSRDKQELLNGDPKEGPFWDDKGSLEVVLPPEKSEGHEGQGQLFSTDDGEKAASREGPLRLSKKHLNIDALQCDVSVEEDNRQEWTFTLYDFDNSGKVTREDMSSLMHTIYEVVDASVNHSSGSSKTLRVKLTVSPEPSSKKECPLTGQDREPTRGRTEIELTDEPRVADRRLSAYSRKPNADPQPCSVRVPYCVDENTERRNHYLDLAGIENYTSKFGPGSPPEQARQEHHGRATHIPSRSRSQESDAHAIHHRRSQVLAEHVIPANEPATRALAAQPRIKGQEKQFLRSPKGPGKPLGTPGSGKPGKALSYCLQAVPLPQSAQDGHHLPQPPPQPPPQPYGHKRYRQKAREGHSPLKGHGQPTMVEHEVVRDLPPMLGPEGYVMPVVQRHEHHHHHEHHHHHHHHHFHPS
B6: E3 ubiquitin-protein ligase SMURF2 (Mus musculus), A2A5Z6 (parent)
chain: B2 chain
partner: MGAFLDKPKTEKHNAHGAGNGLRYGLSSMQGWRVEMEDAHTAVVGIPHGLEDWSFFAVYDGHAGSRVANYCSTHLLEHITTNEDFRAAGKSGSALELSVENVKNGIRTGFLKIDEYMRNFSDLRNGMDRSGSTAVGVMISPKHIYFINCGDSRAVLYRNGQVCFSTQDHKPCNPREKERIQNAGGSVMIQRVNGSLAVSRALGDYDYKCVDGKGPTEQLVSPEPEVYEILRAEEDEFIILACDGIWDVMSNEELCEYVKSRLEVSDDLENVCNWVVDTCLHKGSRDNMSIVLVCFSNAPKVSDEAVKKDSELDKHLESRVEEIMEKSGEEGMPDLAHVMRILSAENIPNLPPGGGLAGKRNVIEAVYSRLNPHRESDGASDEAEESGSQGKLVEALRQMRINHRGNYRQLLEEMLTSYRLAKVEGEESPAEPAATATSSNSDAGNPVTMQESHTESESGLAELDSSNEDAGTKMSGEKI
B7: E3 ubiquitin-protein ligase SMURF2 (Mus musculus), A2A5Z6 (parent)
chain: B2 chain
partner: B1 chain

Variants of B1 are the subject of one experiment. The conditions noted are these: with smuf2_mouse Smurf2, A2A5Z6.
Turning to E499G, the “effect of a mutation on the interaction” value is “decreasing interaction”.

The variants in another experiment derive from B1. The conditions noted are these: with smuf2_mouse Smurf2, A2A5Z6. The source holds these as a separate data set.
For C501R, the “effect of a mutation on the interaction” value is recorded as “decreasing interaction”.

A further experiment covers variants of B2. The conditions noted are these: with elav1_human ELAVL1, Q15717.
Sequence of elav1_human ELAVL1, Q15717 (Q15717 whole entry): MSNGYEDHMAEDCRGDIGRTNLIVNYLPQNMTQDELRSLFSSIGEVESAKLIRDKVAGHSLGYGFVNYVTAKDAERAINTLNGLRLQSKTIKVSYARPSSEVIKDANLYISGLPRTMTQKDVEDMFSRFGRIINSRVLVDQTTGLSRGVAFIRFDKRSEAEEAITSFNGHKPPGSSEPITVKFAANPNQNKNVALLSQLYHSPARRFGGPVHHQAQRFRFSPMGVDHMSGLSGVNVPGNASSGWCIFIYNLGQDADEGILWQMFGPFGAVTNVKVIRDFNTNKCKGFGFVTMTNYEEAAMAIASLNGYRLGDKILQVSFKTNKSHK
C716A: the “effect of a mutation on the interaction” value was “decreasing interaction”.

Variants of B2 are the subject of the next experiment. The conditions noted are these: with rac1_mouse Rac1, P63001.
As to C716A, the “effect of a mutation on the interaction” value is recorded as “decreasing interaction”.

Variants of B2 are the subject of another experiment. The conditions noted are these: with tp53b_mouse Tp53bp1, P70399.
Sequence of tp53b_mouse Tp53bp1, P70399 (P70399 whole entry): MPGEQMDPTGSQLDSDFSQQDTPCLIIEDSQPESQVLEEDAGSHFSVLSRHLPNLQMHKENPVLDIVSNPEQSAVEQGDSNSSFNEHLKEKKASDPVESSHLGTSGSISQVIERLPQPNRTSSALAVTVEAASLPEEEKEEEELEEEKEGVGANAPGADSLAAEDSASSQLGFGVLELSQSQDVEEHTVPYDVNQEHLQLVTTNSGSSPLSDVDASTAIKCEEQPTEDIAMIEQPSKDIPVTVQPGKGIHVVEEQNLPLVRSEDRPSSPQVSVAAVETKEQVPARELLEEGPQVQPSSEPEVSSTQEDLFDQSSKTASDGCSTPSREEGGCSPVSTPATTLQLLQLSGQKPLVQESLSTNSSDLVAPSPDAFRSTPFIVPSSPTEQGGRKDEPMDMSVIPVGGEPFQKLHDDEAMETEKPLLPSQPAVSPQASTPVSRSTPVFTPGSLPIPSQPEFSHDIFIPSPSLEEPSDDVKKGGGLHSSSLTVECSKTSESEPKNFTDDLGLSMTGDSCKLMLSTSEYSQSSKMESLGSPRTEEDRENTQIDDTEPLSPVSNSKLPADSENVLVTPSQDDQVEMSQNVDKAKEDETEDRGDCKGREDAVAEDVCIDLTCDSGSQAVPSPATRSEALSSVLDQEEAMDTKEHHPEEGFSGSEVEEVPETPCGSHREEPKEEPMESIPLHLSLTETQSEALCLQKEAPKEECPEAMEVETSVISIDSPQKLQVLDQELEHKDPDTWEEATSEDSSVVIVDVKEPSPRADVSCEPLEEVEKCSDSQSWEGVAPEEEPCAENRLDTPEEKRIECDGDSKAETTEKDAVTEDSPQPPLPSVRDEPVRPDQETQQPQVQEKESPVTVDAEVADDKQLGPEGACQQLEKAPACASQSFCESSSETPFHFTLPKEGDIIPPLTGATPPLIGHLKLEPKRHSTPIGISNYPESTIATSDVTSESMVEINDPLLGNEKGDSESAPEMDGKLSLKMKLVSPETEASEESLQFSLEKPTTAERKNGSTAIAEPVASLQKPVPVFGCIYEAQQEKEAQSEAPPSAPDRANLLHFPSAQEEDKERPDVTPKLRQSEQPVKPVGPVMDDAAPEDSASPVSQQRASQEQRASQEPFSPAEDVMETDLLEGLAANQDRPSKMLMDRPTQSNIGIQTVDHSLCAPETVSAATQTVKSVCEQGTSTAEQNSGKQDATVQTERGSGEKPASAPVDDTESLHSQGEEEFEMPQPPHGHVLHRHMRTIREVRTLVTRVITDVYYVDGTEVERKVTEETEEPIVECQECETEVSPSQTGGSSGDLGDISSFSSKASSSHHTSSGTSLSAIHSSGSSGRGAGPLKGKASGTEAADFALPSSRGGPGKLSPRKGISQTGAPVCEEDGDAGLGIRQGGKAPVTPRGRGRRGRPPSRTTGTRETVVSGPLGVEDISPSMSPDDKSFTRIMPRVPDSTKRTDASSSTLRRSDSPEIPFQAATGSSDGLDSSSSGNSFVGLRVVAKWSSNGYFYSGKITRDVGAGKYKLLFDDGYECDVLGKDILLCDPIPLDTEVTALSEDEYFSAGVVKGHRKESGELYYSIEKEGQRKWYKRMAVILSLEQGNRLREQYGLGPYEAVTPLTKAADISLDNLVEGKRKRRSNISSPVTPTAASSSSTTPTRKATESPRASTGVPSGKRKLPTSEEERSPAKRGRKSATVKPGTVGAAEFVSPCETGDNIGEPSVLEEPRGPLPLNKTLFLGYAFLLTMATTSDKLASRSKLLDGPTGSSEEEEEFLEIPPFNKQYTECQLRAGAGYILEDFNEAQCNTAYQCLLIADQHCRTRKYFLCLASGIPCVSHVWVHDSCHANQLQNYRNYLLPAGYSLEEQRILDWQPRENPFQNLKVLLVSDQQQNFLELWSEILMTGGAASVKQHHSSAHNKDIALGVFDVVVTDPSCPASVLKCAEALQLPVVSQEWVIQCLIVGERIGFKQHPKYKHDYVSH
As to C716A, the “effect of a mutation on the interaction” value is listed as “decreasing interaction”.

The variants in another experiment derive from B3. The conditions noted are these: with dvl3_human DVL3, Q92997.
For C716A, the “effect of a mutation on the interaction” value is listed as “decreasing interaction”.

A further experiment covers variants of B4. The conditions noted are these: with dvl1_mouse Dvl1, P51141.
C716A: the “effect of a mutation on the interaction” value is recorded as “decreasing interaction”.

Variants of B5 are the subject of a further experiment. The conditions noted are these: with nkd2_mouse Nkd2, Q8VE28.
Regarding C716A, the “effect of a mutation on the interaction” value is listed as “decreasing interaction”.

A further experiment covers variants of B6. The conditions noted are these: with ppm1b_human PPM1B.
C716A: the “effect of a mutation on the interaction” value is listed as “decreasing interaction”.

A further experiment covers variants of B7. The conditions noted are these: with dvl2_human DVL2, O14641.
Regarding C716A, the “effect of a mutation on the interaction” value is “decreasing interaction”.
